Measurements as given in article PMC3026072.

What was measured:
[1] = anti-GFP Western band intensity, CHO membranes; details: glycan lost; control: wild-type OCTN2
[2] = confocal GFP vs Bodipy-ceramide, MetaMorph; details: glycan lost; control: wild-type OCTN2
[3] = carnitine 0.5–100 µM uptake, Michaelis-Menten fit, CHO; details: glycan lost; control: wild-type OCTN2
[4] = Michaelis-Menten kinetics after 16 h tunicamycin, CHO; details: glycan lost; control: untreated cells

| Protein | expression_or_secretion [1] | localisation_or_trafficking, other: percent of transporters at plasma membrane [2] | other: Vmax of carnitine transport [3] | other: kinetic parameters of carnitine transport [4] |
| --- | --- | --- | --- | --- |
| OCTN2 carnitine transporter: N57/64/91Q (protein) parent chain: MRDYDEVTAFLGEWGPFQRLIFFLLSASIIPNGFTGLSSVFLIATPEHRCRVPDAANLSSAWRNHTVPLRLRDGREVPHSCRRYRLATIANFSALGLEPGRDVDLGQLEQESCLDGWEFSQDVYLSTIVTEWNLVCEDDWKAPLTISLFFVGVLLGSFISGQLSDRFGRKNVLFVTMGMQTGFSFLQIFSKNFEMFVVLFVLVGMGQISNYVAAFVLGTEILGKSVRIIFSTLGVCIFYAFGYMVLPLFAYFIRDWRMLLVALTMPGVLCVALWWFIPESPRWLISQGRFEEAEVIIRKAAKANGIVVPSTIFDPSELQDLSSKKQQSHNILDLLRTWNIRMVTIMSIMLWMTISVGYFGLSLDTPNLHGDIFVNCFLSAMVEVPAYVLAWLLLQYLPRRYSMATALFLGGSVLLFMQLVPPDLYYLATVLVMVGKFGVTAAFSMVYVYTAELYPTVVRNMGVGVSSTASRLGSILSPYFVYLGAYDRFLPYILMGSLTILTAILTLFLPESFGTPLPDTIDQMLRVKGMKHRKTPSHTRMLKDGQERPTILKSTAF | decreases | abolishes |  |  |
| OCTN2 carnitine transporter: N57Q/N64Q (protein) parent chain: MRDYDEVTAFLGEWGPFQRLIFFLLSASIIPNGFTGLSSVFLIATPEHRCRVPDAANLSSAWRNHTVPLRLRDGREVPHSCRRYRLATIANFSALGLEPGRDVDLGQLEQESCLDGWEFSQDVYLSTIVTEWNLVCEDDWKAPLTISLFFVGVLLGSFISGQLSDRFGRKNVLFVTMGMQTGFSFLQIFSKNFEMFVVLFVLVGMGQISNYVAAFVLGTEILGKSVRIIFSTLGVCIFYAFGYMVLPLFAYFIRDWRMLLVALTMPGVLCVALWWFIPESPRWLISQGRFEEAEVIIRKAAKANGIVVPSTIFDPSELQDLSSKKQQSHNILDLLRTWNIRMVTIMSIMLWMTISVGYFGLSLDTPNLHGDIFVNCFLSAMVEVPAYVLAWLLLQYLPRRYSMATALFLGGSVLLFMQLVPPDLYYLATVLVMVGKFGVTAAFSMVYVYTAELYPTVVRNMGVGVSSTASRLGSILSPYFVYLGAYDRFLPYILMGSLTILTAILTLFLPESFGTPLPDTIDQMLRVKGMKHRKTPSHTRMLKDGQERPTILKSTAF | no change |  |  |  |
| OCTN2 carnitine transporter: N64/91Q (protein) parent chain: MRDYDEVTAFLGEWGPFQRLIFFLLSASIIPNGFTGLSSVFLIATPEHRCRVPDAANLSSAWRNHTVPLRLRDGREVPHSCRRYRLATIANFSALGLEPGRDVDLGQLEQESCLDGWEFSQDVYLSTIVTEWNLVCEDDWKAPLTISLFFVGVLLGSFISGQLSDRFGRKNVLFVTMGMQTGFSFLQIFSKNFEMFVVLFVLVGMGQISNYVAAFVLGTEILGKSVRIIFSTLGVCIFYAFGYMVLPLFAYFIRDWRMLLVALTMPGVLCVALWWFIPESPRWLISQGRFEEAEVIIRKAAKANGIVVPSTIFDPSELQDLSSKKQQSHNILDLLRTWNIRMVTIMSIMLWMTISVGYFGLSLDTPNLHGDIFVNCFLSAMVEVPAYVLAWLLLQYLPRRYSMATALFLGGSVLLFMQLVPPDLYYLATVLVMVGKFGVTAAFSMVYVYTAELYPTVVRNMGVGVSSTASRLGSILSPYFVYLGAYDRFLPYILMGSLTILTAILTLFLPESFGTPLPDTIDQMLRVKGMKHRKTPSHTRMLKDGQERPTILKSTAF | decreases | decreases | decreases |  |
| OCTN2 carnitine transporter: N57/91Q (protein) parent chain: MRDYDEVTAFLGEWGPFQRLIFFLLSASIIPNGFTGLSSVFLIATPEHRCRVPDAANLSSAWRNHTVPLRLRDGREVPHSCRRYRLATIANFSALGLEPGRDVDLGQLEQESCLDGWEFSQDVYLSTIVTEWNLVCEDDWKAPLTISLFFVGVLLGSFISGQLSDRFGRKNVLFVTMGMQTGFSFLQIFSKNFEMFVVLFVLVGMGQISNYVAAFVLGTEILGKSVRIIFSTLGVCIFYAFGYMVLPLFAYFIRDWRMLLVALTMPGVLCVALWWFIPESPRWLISQGRFEEAEVIIRKAAKANGIVVPSTIFDPSELQDLSSKKQQSHNILDLLRTWNIRMVTIMSIMLWMTISVGYFGLSLDTPNLHGDIFVNCFLSAMVEVPAYVLAWLLLQYLPRRYSMATALFLGGSVLLFMQLVPPDLYYLATVLVMVGKFGVTAAFSMVYVYTAELYPTVVRNMGVGVSSTASRLGSILSPYFVYLGAYDRFLPYILMGSLTILTAILTLFLPESFGTPLPDTIDQMLRVKGMKHRKTPSHTRMLKDGQERPTILKSTAF |  | decreases |  |  |
| OCTN2 carnitine transporter: tunicamycin (0.5 µg/ml) (protein) parent chain: MRDYDEVTAFLGEWGPFQRLIFFLLSASIIPNGFTGLSSVFLIATPEHRCRVPDAANLSSAWRNHTVPLRLRDGREVPHSCRRYRLATIANFSALGLEPGRDVDLGQLEQESCLDGWEFSQDVYLSTIVTEWNLVCEDDWKAPLTISLFFVGVLLGSFISGQLSDRFGRKNVLFVTMGMQTGFSFLQIFSKNFEMFVVLFVLVGMGQISNYVAAFVLGTEILGKSVRIIFSTLGVCIFYAFGYMVLPLFAYFIRDWRMLLVALTMPGVLCVALWWFIPESPRWLISQGRFEEAEVIIRKAAKANGIVVPSTIFDPSELQDLSSKKQQSHNILDLLRTWNIRMVTIMSIMLWMTISVGYFGLSLDTPNLHGDIFVNCFLSAMVEVPAYVLAWLLLQYLPRRYSMATALFLGGSVLLFMQLVPPDLYYLATVLVMVGKFGVTAAFSMVYVYTAELYPTVVRNMGVGVSSTASRLGSILSPYFVYLGAYDRFLPYILMGSLTILTAILTLFLPESFGTPLPDTIDQMLRVKGMKHRKTPSHTRMLKDGQERPTILKSTAF |  |  |  | no change |
